This series deals with Saccharomyces cerevisiae. Briefly: protein stability index of tFT-peptide fusion (C-terminal peptide) (PSI (0-1 scale)); higher = more stable (slower turnover). The note with it: temperature: 30 C. The method, then:
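MPS profiling in S. cerevisiae of the yeast C-terminome library: the last 12 aa of each annotated ORF are fused to the C-terminus of a sfGFP-mCherry timer, after a GGGS linker. Cells are FACS-sorted into 8 mCherry/sfGFP bins and deep-sequenced. PSI runs from 0 (unstable) to 1 (stable); wild type and das1Δ backgrounds, two technical replicates each.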

The mark [1] stands for this setting: genetic background: das1 deletion.

± gives the standard deviation of the averaged measurements.

MDNKQQLSSGRT [SNA3 C-terminal 12 aa]: the protein stability index was found to be 0.709 ± 0.016 under setting [1] and 0.686 ± 0.021 (genetic background: wild type).

Regarding MFKCARQSEFDK [MTG2 C-terminal 12 aa], the protein stability index by setting is: under setting [1], 0.6881 ± 0.0066; (genetic background: wild type) 0.6829 ± 0.0037.

On to MKKLQNKKSSAV [CAB5 C-terminal 12 aa], for which the protein stability index came out at 0.695 ± 0.05 under setting [1] and 0.677 ± 0.021 (genetic background: wild type).

Turning to MQRVSTQHEKSS [PMA2 C-terminal 12 aa], the protein stability index runs as follows: under setting [1], 0.693 ± 0.024; (genetic background: wild type) 0.711 ± 0.096.

With MQTHYILMKAQW [PPM1 C-terminal 12 aa], the protein stability index was found to be 0.579 ± 0.008 under setting [1] and 0.5353 ± 0.0021 (genetic background: wild type).

Regarding MSSFLSKKENNN [SNT1 C-terminal 12 aa], the protein stability index came to 0.722 ± 0.024 under setting [1] and 0.6618 ± 0.005 (genetic background: wild type).

For MTGTCFMTDLAP [YKL097C C-terminal 12 aa], the protein stability index is, setting by setting: under setting [1], 0.721 ± 0.024; (genetic background: wild type) 0.695 ± 0.021.

MTLDSWQPLTPK [INP53 C-terminal 12 aa]: the protein stability index runs as follows: under setting [1], 0.723 ± 0.016; (genetic background: wild type) 0.712 ± 0.03.

In turn, NEEYIEELDLVL [HSH155 C-terminal 12 aa] registered a protein stability index under setting [1] of 0.696 ± 0.0089 and a protein stability index (genetic background: wild type) of 0.674 ± 0.015.

With NFQTHYRDELLQ [REH1 C-terminal 12 aa], the protein stability index under setting [1] amounted to 0.729 ± 0.054 and the protein stability index (genetic background: wild type) came to 0.584 ± 0.016.

Regarding “NFVSQYRNDEIY [YOR381W-A C-terminal 12 aa]”, the protein stability index amounted to 0.688 ± 0.032 under setting [1] and 0.659 ± 0.023 (genetic background: wild type).

Consider NGHVSKKAKVTK [LYS21 C-terminal 12 aa], for which the protein stability index by setting is: under setting [1], 0.6885 ± 0.0043; (genetic background: wild type) 0.667 ± 0.021.

For NIAPFPFFGKRR [PMD1 C-terminal 12 aa], the protein stability index under setting [1] was found to be 0.6837 ± 0.00075 and the protein stability index (genetic background: wild type) is 0.674 ± 0.02.

With NIEKGVNFVASK [MDH1 C-terminal 12 aa], the protein stability index under setting [1] turned out to be 0.6837 ± 0.0049 and the protein stability index (genetic background: wild type) was 0.677 ± 0.052.

NIGDFSPDLMDS [MSS11 C-terminal 12 aa] came in with a protein stability index under setting [1] of 0.684 ± 0.011 and a protein stability index (genetic background: wild type) of 0.713 ± 0.0096.

On to NIKALNQSKSHM [SPO77 C-terminal 12 aa], for which the protein stability index under setting [1] is 0.684 ± 0.022 and the protein stability index (genetic background: wild type) came out at 0.6701 ± 0.003.

Consider NKKPKNKKKGRK [SRP72 C-terminal 12 aa], for which the protein stability index under setting [1] was found to be 0.6842 ± 0.005 and the protein stability index (genetic background: wild type) stood at 0.646 ± 0.0076.

For the sequence NKRLKKILNNTK [RME1 C-terminal 12 aa], the protein stability index runs as follows: under setting [1], 0.702 ± 0.014; (genetic background: wild type) 0.674 ± 0.023.

With NKVEAFKSLYTF [NUP60 C-terminal 12 aa], the protein stability index runs as follows: under setting [1], 0.705 ± 0.028; (genetic background: wild type) 0.591 ± 0.013.

In the case of NLKNGVTLESPE [UBP12 C-terminal 12 aa], the protein stability index was 0.716 ± 0.01 under setting [1] and 0.6889 ± 0.0028 (genetic background: wild type).

For the sequence NLMVADDKVWRV [MCM3 C-terminal 12 aa], the protein stability index under setting [1] is 0.696 ± 0.017 and the protein stability index (genetic background: wild type) amounted to 0.7005 ± 0.0019.

NLVASKQLSTYK [RAV2 C-terminal 12 aa]: the protein stability index was found to be 0.694 ± 0.0082 under setting [1] and 0.641 ± 0.031 (genetic background: wild type).

On to NMLFICLNVPHY [YGL114W C-terminal 12 aa], for which the protein stability index reads like this: under setting [1], 0.6561 ± 0.0045; (genetic background: wild type) 0.632 ± 0.007.

For NNASEDDRGIRV [STB2 C-terminal 12 aa], the protein stability index is, setting by setting: under setting [1], 0.6973 ± 0.0012; (genetic background: wild type) 0.685 ± 0.089.

NNIKWYLHWKFI [VPR1 C-terminal 12 aa]: the protein stability index by setting is: under setting [1], 0.684 ± 0.033; (genetic background: wild type) 0.168 ± 0.019.

NNNMESFPEMSP [GLE1 C-terminal 12 aa] gave a protein stability index under setting [1] of 0.726 ± 0.013 and a protein stability index (genetic background: wild type) of 0.72 ± 0.017.

On to NNNNNNNDDDDK [CTK1 C-terminal 12 aa], for which the protein stability index was 0.694 ± 0.021 under setting [1] and 0.691 ± 0.028 (genetic background: wild type).

Consider NQAIQYANEFQQ [HOG1 C-terminal 12 aa], for which the protein stability index runs as follows: under setting [1], 0.701 ± 0.022; (genetic background: wild type) 0.715 ± 0.043.

In the case of NQRKANDNKRRR [RRP17 C-terminal 12 aa], the protein stability index by setting is: under setting [1], 0.7188 ± 0.001; (genetic background: wild type) 0.77 ± 0.058.

For the sequence NQRSFNDKSKRD [CAX4 C-terminal 12 aa], the protein stability index amounted to 0.692 ± 0.009 under setting [1] and 0.6901 ± 0.0064 (genetic background: wild type).

As for NSFDGLLVYLSN [CBF2 C-terminal 12 aa], the protein stability index by setting is: under setting [1], 0.6572 ± 0.0033; (genetic background: wild type) 0.6615 ± 0.0065.

In the case of NSIVKQFKEIFK [AIM41 C-terminal 12 aa], the protein stability index is, setting by setting: under setting [1], 0.709 ± 0.028; (genetic background: wild type) 0.67 ± 0.0096.

As to NSSSNESIQVVV [SFK1 C-terminal 12 aa], the protein stability index was 0.706 ± 0.043 under setting [1] and 0.696 ± 0.037 (genetic background: wild type).

In the case of NTLRISTVGQEF [PYK2 C-terminal 12 aa], the protein stability index under setting [1] is 0.7106 ± 0.0029 and the protein stability index (genetic background: wild type) was determined as 0.707 ± 0.0074.

Regarding NTSGQKPNEYNY [APA1 C-terminal 12 aa], the protein stability index is, setting by setting: under setting [1], 0.7049 ± 0.0049; (genetic background: wild type) 0.698 ± 0.018.

Take NVGVIRPLLDLQ [YGR069W C-terminal 12 aa]: the protein stability index reads like this: under setting [1], 0.743 ± 0.026; (genetic background: wild type) 0.729 ± 0.015.

For NVTKLAKERVLF [CPA1 C-terminal 12 aa], the protein stability index turned out to be 0.6847 ± 0.0048 under setting [1] and 0.703 ± 0.055 (genetic background: wild type).

In turn, “NVYRLTLMIFRL [YMR013W-A C-terminal 12 aa]” showed a protein stability index under setting [1] of 0.428 ± 0.016 and a protein stability index (genetic background: wild type) of 0.249 ± 0.0095.

Regarding “NWVRYSSIYYQL [YDR194W-A C-terminal 12 aa]”, the protein stability index reads like this: under setting [1], 0.695 ± 0.013; (genetic background: wild type) 0.14 ± 0.011.

NYPELPRLTFST [RFU1 C-terminal 12 aa]: the protein stability index came out at 0.704 ± 0.018 under setting [1] and 0.691 ± 0.0092 (genetic background: wild type).

As for NYRLEEQDVLTW [LYS14 C-terminal 12 aa], the protein stability index under setting [1] was found to be 0.721 ± 0.037 and the protein stability index (genetic background: wild type) was found to be 0.693 ± 0.058.

With PAAISGTVPSIF [DIN7 C-terminal 12 aa], the protein stability index was 0.715 ± 0.021 under setting [1] and 0.677 ± 0.017 (genetic background: wild type).

As to PAKFGIQFQYST [MDM10 C-terminal 12 aa], the protein stability index runs as follows: under setting [1], 0.697 ± 0.021; (genetic background: wild type) 0.662 ± 0.038.

With PCTASITSLISF [YDR269C C-terminal 12 aa], the protein stability index by setting is: under setting [1], 0.709 ± 0.012; (genetic background: wild type) 0.731 ± 0.03.

In the case of PDEISFLQQFTS [KAP104 C-terminal 12 aa], the protein stability index reads like this: under setting [1], 0.721 ± 0.0076; (genetic background: wild type) 0.676 ± 0.023.

PEAEGPTVEEVD [SSA1 C-terminal 12 aa] came in with a protein stability index under setting [1] of 0.703 ± 0.02 and a protein stability index (genetic background: wild type) of 0.694 ± 0.019.

In turn, PELSSTVSHNRA [WSC3 C-terminal 12 aa] returned a protein stability index under setting [1] of 0.693 ± 0.035 and a protein stability index (genetic background: wild type) of 0.783 ± 0.07.

Take PEMTRRGRGPRR [RPA49 C-terminal 12 aa]: the protein stability index was 0.714 ± 0.022 under setting [1] and 0.673 ± 0.033 (genetic background: wild type).

Regarding PFPLLRLSAPFK [OST3 C-terminal 12 aa], the protein stability index runs as follows: under setting [1], 0.72 ± 0.0091; (genetic background: wild type) 0.749 ± 0.061.

Take PFPLPSTERVIF [ADY2 C-terminal 12 aa]: the protein stability index was 0.723 ± 0.02 under setting [1] and 0.73 ± 0.023 (genetic background: wild type).

For the sequence “PHYAGCLEDIIF [YER066C-A C-terminal 12 aa]”, the protein stability index turned out to be 0.719 ± 0.046 under setting [1] and 0.74 ± 0.035 (genetic background: wild type).

Turning to PIKEVLLENWDQ [PUS5 C-terminal 12 aa], the protein stability index by setting is: under setting [1], 0.715 ± 0.017; (genetic background: wild type) 0.683 ± 0.024.

Take PIRTPDAKKPKI [BUR2 C-terminal 12 aa]: the protein stability index is, setting by setting: under setting [1], 0.715 ± 0.013; (genetic background: wild type) 0.8 ± 0.13.

Take PIVHYISDRRTV [ARC15 C-terminal 12 aa]: the protein stability index was 0.682 ± 0.013 under setting [1] and 0.688 ± 0.0093 (genetic background: wild type).

Consider PKETLHRSDHQG [YPR039W C-terminal 12 aa], for which the protein stability index is, setting by setting: under setting [1], 0.6938 ± 0.0051; (genetic background: wild type) 0.689 ± 0.076.

Regarding PKFSKPDPLKRD [SAC1 C-terminal 12 aa], the protein stability index under setting [1] is 0.72 ± 0.01 and the protein stability index (genetic background: wild type) is 0.6853 ± 0.005.

Consider PLGEVDLNSFKN [YHP1 C-terminal 12 aa], for which the protein stability index by setting is: under setting [1], 0.691 ± 0.019; (genetic background: wild type) 0.682 ± 0.034.

For PLLELVMELRDR [MOB1 C-terminal 12 aa], the protein stability index by setting is: under setting [1], 0.726 ± 0.051; (genetic background: wild type) 0.736 ± 0.01.

In the case of PLRLLIRPVGEL [YOR248W C-terminal 12 aa], the protein stability index by setting is: under setting [1], 0.679 ± 0.008; (genetic background: wild type) 0.673 ± 0.042.

In turn, PLWNQRRDDLFH [NIT2 C-terminal 12 aa] returned a protein stability index under setting [1] of 0.74 ± 0.042 and a protein stability index (genetic background: wild type) of 0.744 ± 0.055.

For the sequence PMALFGIFAVAL [AFB1 C-terminal 12 aa], the protein stability index amounted to 0.5769 ± 0.0038 under setting [1] and 0.596 ± 0.0014 (genetic background: wild type).

Regarding PNVSYIEEKLNQ [MAS1 C-terminal 12 aa], the protein stability index stood at 0.702 ± 0.015 under setting [1] and 0.717 ± 0.011 (genetic background: wild type).

Take PPNTLWHYNFRK [MRPL28 C-terminal 12 aa]: the protein stability index under setting [1] stood at 0.751 ± 0.024 and the protein stability index (genetic background: wild type) turned out to be 0.69 ± 0.018.

With PQGFEIIELLNF [ROM1 C-terminal 12 aa], the protein stability index amounted to 0.717 ± 0.044 under setting [1] and 0.718 ± 0.013 (genetic background: wild type).

For PRSDDEDDEDSE [FAP7 C-terminal 12 aa], the protein stability index amounted to 0.683 ± 0.026 under setting [1] and 0.671 ± 0.025 (genetic background: wild type).

The sequence “PSSDHAKSVMGE [YML101C-A C-terminal 12 aa]” returned a protein stability index under setting [1] of 0.707 ± 0.018 and a protein stability index (genetic background: wild type) of 0.6804 ± 0.0044.

As for PSTLIITTLLFK [YJR023C C-terminal 12 aa], the protein stability index by setting is: under setting [1], 0.618 ± 0.051; (genetic background: wild type) 0.61 ± 0.017.

For the origin of these results see the supplement of paper PMC10724198.
